We go through four molecules from patent US20130108636A1 (US Dept. of Health and Human Services, published 2013).

The target in this experiment is T1, gp120Bal-CD4.
T1 construct: also called 120Bal-CD4 complex
In words: ELISA, OD 450 nm. (An ELISA detects its analyte on a solid surface through an enzyme-linked reagent.)

B1: m36.4 (VHH)
VHH: QVQLVQSGGGLVQPGGSLRLSCAASAFDFSDYEMSWVREAPGKGLEWIGEINDSGNTIYNPSLKSRVTISRDNSKNTLYLQMNTLRAEDTAIYYCAIYGGNSGGEYWGQGTLVTVSS
notes: eAd, mutant of m36; also called m36.4 eAd
On to B1, for which the “EC50 (read off the curve)” value is roughly 1 nM.

B2: m36.1 (VHH)
VHH: QVQLVQSGGGLVQPGGSLRLSCAASTFDFSDYEMSWVREAPGKGLEWIGEINDSGNTIYNPSLKNRVTISRDNSKNTLYLQMNTLRAEDTAIYYCAIYGGNSGGEYWGQGTLVTVSS
notes: eAd, mutant of m36 selected from a phage library
Turning to B2, the “EC50 (read off the curve)” value was roughly 1 nM.

B3: m36.2 (VHH)
VHH: QVQLVQSGGGLIQPGGSLRLSCAASAFDFSDYEMSWVRQDPGKGLEWIGEINDRGNTIYNPSLKSRVTISRDNSKNTLYLQMNTLRAEDTAIYYCAIYGGNSGGEYWGQGTLVTVSS
notes: as for B2
With B3, the “EC50 (read off the curve)” value was roughly 2 nM.

B4: m36.5 (VHH)
VHH: QVQLVQSGGGLVQPGGSLRLSCAASAFDFSDYEMSWVREAPGKGLEWIGEINDSGNTIYNPSLKSRVTISRDNSKNTLYLQMNTLSAEDTAIYYCAIYGGNSGGEYWGQGTLVTVSS
notes: as for B2
With B4, the “EC50 (read off the curve)” value is roughly 1 nM.

Usually EC50 (read off the curve) stands for the concentration that produces a half-maximal response.
